Measurements as given in the MegaScale stability set (Tsuboyama et al. 2023).

B1: EEHEE_rd4_0469 (parent)
chain: ITIHVNGVTYHFDNPEEAEKFAQKMAKTYQLKMEIHNGEFHME

Variants of: B1
Test: folding stability dG (cDNA display proteolysis); higher = more stable
Details: PBS, room temperature

Point of comparison: L31F, “folding stability dG” value 1.1 kcal/mol. Against it:
- E17N — lower, 0.912 kcal/mol
- E17V — lower, 1.02 kcal/mol
- E17S — higher, 1.15 kcal/mol
- Y29C — higher, 2.3 kcal/mol
- Q23Y — higher, 1.28 kcal/mol
- Q23A — higher, 1.24 kcal/mol
- Q23W — higher, 1.36 kcal/mol
- M33E — lower, 0.678 kcal/mol
- M33G — lower, 0.452 kcal/mol
- F40S — lower, 0.704 kcal/mol
- F40C — higher, 1.79 kcal/mol
- E39S — lower, 0.882 kcal/mol
- G38L — lower, 0.917 kcal/mol
- G38A — lower, 0.774 kcal/mol
- E34F — higher, 1.82 kcal/mol
- E34T — higher, 1.51 kcal/mol
- E34W — higher, 1.54 kcal/mol
- E34A — lower, 1.03 kcal/mol
- I35L — lower, 1.07 kcal/mol
- I35K — lower, 0.644 kcal/mol
- Q30R — lower, 0.814 kcal/mol
- Q30I — lower, 0.708 kcal/mol
- Q30E — higher, 1.21 kcal/mol
- Q30M — lower, 0.881 kcal/mol
- Q30P — higher, 1.53 kcal/mol
- L31C — higher, 2.3 kcal/mol
- L31M — lower, 1.01 kcal/mol
- L31K — lower, 0.692 kcal/mol
- L31G — lower, 1.02 kcal/mol
- L31H — lower, 0.984 kcal/mol
- L31V — higher, 1.28 kcal/mol
- L31W — lower, 0.829 kcal/mol
- H4T — lower, 0.943 kcal/mol
- H4F — lower, 1.08 kcal/mol
- K20G — lower, 0.79 kcal/mol
- I1Q — lower, 0.734 kcal/mol
- I1M — lower, 0.992 kcal/mol
- E16V — higher, 1.18 kcal/mol
- Y10E — lower, -0.243 kcal/mol
- H11E — lower, 0.843 kcal/mol
- H11K — higher, 1.12 kcal/mol
- H11N — lower, 0.977 kcal/mol
- H11L — lower, 1.02 kcal/mol
- D13H — higher, 1.2 kcal/mol
- D13M — higher, 1.16 kcal/mol
- T2Q — lower, 0.972 kcal/mol
- T2M — lower, 1.01 kcal/mol
- T2E — lower, 0.797 kcal/mol
- A22V — higher, 1.4 kcal/mol
- F21R — lower, -0.383 kcal/mol
- F21L — lower, 0.173 kcal/mol
- F21G — lower, -0.582 kcal/mol
- E43G — higher, 1.14 kcal/mol
- E43P — lower, 0.817 kcal/mol
- E43Y — higher, 1.94 kcal/mol
- E43H — higher, 1.46 kcal/mol
- T9Y — lower, 0.832 kcal/mol
- T9N — lower, 0.826 kcal/mol
- T9F — lower, 0.925 kcal/mol
- V5M — lower, 0.927 kcal/mol
- V5K — lower, 0.112 kcal/mol
- V5W — higher, 1.2 kcal/mol
- T28Q — higher, 1.51 kcal/mol
- T28K — higher, 1.69 kcal/mol
- T28L — higher, 1.97 kcal/mol
- E19M — higher, 1.61 kcal/mol
- E19Y — higher, 1.6 kcal/mol
- N14D — higher, 1.19 kcal/mol
- N14T — lower, 1.09 kcal/mol
- N14Q — lower, 1 kcal/mol
- N14K — the same, 1.1 kcal/mol
- N14I — higher, 1.22 kcal/mol
- K32T — higher, 1.51 kcal/mol
- K32F — higher, 1.44 kcal/mol
- M42W — lower, 0.913 kcal/mol
- M42H — lower, 0.709 kcal/mol
- M25G — lower, -0.244 kcal/mol
- M25Q — lower, 0.418 kcal/mol
- M25L — higher, 1.12 kcal/mol
- A26G — lower, 0.919 kcal/mol
- A26I — higher, 1.31 kcal/mol
- A26L — higher, 1.25 kcal/mol
- A26Q — lower, 0.97 kcal/mol
- A26T — lower, 0.708 kcal/mol
- N6W — higher, 1.88 kcal/mol
- N6I — higher, 1.51 kcal/mol
- N6S — lower, 1.07 kcal/mol
- N6H — higher, 1.35 kcal/mol
- N6A — higher, 1.3 kcal/mol
- K27T — lower, 1.02 kcal/mol
- K27H — lower, 0.969 kcal/mol
- K27M — higher, 1.22 kcal/mol
- K27P — higher, 1.22 kcal/mol
- K24I — higher, 1.41 kcal/mol
- K24D — lower, 1.09 kcal/mol
- V8A — higher, 1.11 kcal/mol
- V8D — lower, 1.01 kcal/mol
- V8F — higher, 1.36 kcal/mol
- P15A — higher, 1.14 kcal/mol
- A18S — lower, 0.425 kcal/mol
- I3A — lower, 0.525 kcal/mol
- I3R — lower, 0.201 kcal/mol
- I3E — lower, -0.263 kcal/mol
- H41P — lower, 0.588 kcal/mol
- H41T — lower, 0.857 kcal/mol
- H41R — lower, 0.848 kcal/mol
